From paper PMC5538626 (EMBO Reports, 2017)
Ends that are not written are not given here.

Tests used:
Test in all cases: ELISA; called peptide array: biotinylated peptides immobilised on streptavidin-coated 96-well plates; 1 μM His6-mATG8 in PBS, 0.1% Tween-20, 1% BSA, 1 h, 8°C; anti-His-HRP, TMB, absorbance at 450 nm
Conditions in all cases: both partners purified
[1] = molecular target: 6xHis‐tagged LC3B (human, UniProt Q9GZQ8 1-120)
[2] = molecular target: T1, 6xHis‐tagged GABARAP (human, UniProt O95166 1-117)
T1 construct: GABARAP, human; also called His6‐GABARAP; source: E. coli, isolated

[3] = molecular target: T2, 6xHis‐tagged GABARAP‐L2 (human, UniProt P60520 1-117)
T2 construct: GABARAP-L2/GATE-16, human; also called His6‐GABARAP‐L2; GATE‐16; source: E. coli, isolated

[4] = molecular target: T3, 6xHis‐tagged GABARAP‐L1 (human, UniProt Q9H0R8 1-117)
T3 construct: GABARAP-L1, human; also called His6‐GABARAP‐L1; source: E. coli, isolated

[5] = molecular target: T4, 6xHis‐tagged LC3C (human, UniProt Q9BXW4 1-126)
T4 construct: LC3C, human; also called His6‐LC3C; source: E. coli, isolated

[6] = molecular target: T5, 6xHis‐tagged LC3A (human, UniProt Q9H492 1-121)
T5 construct: LC3A (MAP1LC3A), human; also called His6‐LC3A; MAP1LC3A; source: E. coli, isolated

T1 sequence (O95166 whole entry): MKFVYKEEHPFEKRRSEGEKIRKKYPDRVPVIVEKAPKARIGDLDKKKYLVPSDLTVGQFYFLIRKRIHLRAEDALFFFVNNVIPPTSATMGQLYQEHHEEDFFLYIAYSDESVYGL
T3 sequence (Q9H0R8 whole entry, looked up): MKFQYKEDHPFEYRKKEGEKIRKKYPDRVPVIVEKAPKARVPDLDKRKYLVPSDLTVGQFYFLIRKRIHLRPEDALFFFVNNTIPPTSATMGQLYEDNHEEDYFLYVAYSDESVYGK
T2 sequence (P60520 whole entry): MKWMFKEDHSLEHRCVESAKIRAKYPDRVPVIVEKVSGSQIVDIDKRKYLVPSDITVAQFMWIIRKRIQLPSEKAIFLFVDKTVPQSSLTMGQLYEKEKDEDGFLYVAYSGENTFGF
T4 sequence (Q9BXW4 1-126): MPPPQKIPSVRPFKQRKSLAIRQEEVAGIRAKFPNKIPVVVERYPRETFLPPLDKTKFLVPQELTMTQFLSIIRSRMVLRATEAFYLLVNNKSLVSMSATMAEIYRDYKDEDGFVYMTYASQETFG

Binder	binding result [1]	binding result [2]	binding result [3]	binding result [4]	binding result [5]	binding result [6]
DDEWILVDF (also: biotinylated, TP53INP1 LIR; source: bought: JPT (biotinylated peptide)) [TP53INP1 LIR peptide (28–36), biotinylated]	binds	binds				
TLTYDTLRF (also: biotinylated, ATG4B LIR; source: bought: JPT (biotinylated peptide)) [ATG4B LIR peptide (4–12), biotinylated]	binds	binds				
EDEWVRVQY (peptide, UniProt Q9Y4G2 632-640, looked up, also: biotinylated, PLEKHM1 LIR; source: bought: JPT (biotinylated peptide)) [PLEKHM1‐LIR N637R peptide (biotinylated 9-mer)]		binds	binds	binds		
RKEWEELFV (also: biotinylated, TBC1D5 LIR1; source: bought: JPT (biotinylated peptide)) [TBC1D5 (LIR1) peptide (55–63), biotinylated]		binds				
TDDFVLVPH (also: biotinylated, ULK2 LIR; source: bought: JPT (biotinylated peptide)) [ULK2 LIR peptide (350–358), biotinylated]		binds				
DSGFTIVSP (also: biotinylated, TBC1D5 LIR2; source: bought: JPT (biotinylated peptide)) [TBC1D5 (LIR2) peptide (785–793), biotinylated]	binds	binds				
TPDWIFLLR (also: biotinylated, Clathrin HC1 LIR; source: bought: JPT (biotinylated peptide)) [Clathrin HC1 LIR peptide (511–519), biotinylated]		binds				
TFDFETIPH (also: biotinylated, FIP200 LIR; source: bought: JPT (biotinylated peptide)) [FIP200 LIR peptide (699–707), biotinylated]	binds	binds				
SFGWLSLDG (also: biotinylated, c-CBL LIR; source: bought: JPT (biotinylated peptide)) [c‐CBL LIR peptide (799–807), biotinylated]	binds	binds				
ESDWVAVRP (also: biotinylated, JMY LIR; source: bought: JPT (biotinylated peptide)) [JMY LIR peptide (10–18), biotinylated]		binds				
DDFWVRVAP (also: biotinylated, KBTBD6 in the text; also called KBTBD6; KBTDB6; source: bought: JPT (biotinylated peptide)) [KTBD6 LIR peptide (665–673), biotinylated]		binds				
DRMWLKITI (also: biotinylated, DVL2 LIR; source: bought: JPT (biotinylated peptide)) [DVL2 LIR peptide (441–449), biotinylated]	binds	binds				
EDEWVKVQY (peptide, UniProt Q9Y4G2 632-640, looked up, also: biotinylated, PLEKHM1 LIR; source: bought: JPT (biotinylated peptide)) [PLEKHM1‐LIR N637K peptide (biotinylated 9-mer)]		binds	binds	binds		
HDDFVMIDF (also: biotinylated, ATG13 LIR; source: bought: JPT (biotinylated peptide)) [ATG13 LIR peptide (441–449), biotinylated]		binds				
EDEWANVQY (peptide, UniProt Q9Y4G2 632-640, looked up, also: biotinylated, PLEKHM1 LIR; source: bought: JPT (biotinylated peptide)) [PLEKHM1‐LIR V636A peptide (biotinylated 9-mer)]		binds	binds			
EDEWVNAQY (peptide, UniProt Q9Y4G2 632-640, looked up, also: biotinylated, PLEKHM1 LIR; source: bought: JPT (biotinylated peptide)) [PLEKHM1‐LIR V638A peptide (biotinylated 9-mer)]		binds	binds			
PSHWPLIKA (also: biotinylated, β-Catenin LIR; source: bought: JPT (biotinylated peptide)) [β‐Catenin LIR peptide (501–509), biotinylated]	binds	binds				
EEDILVVTT (also: biotinylated, NDP52 LIR; source: bought: JPT (biotinylated peptide)) [NDP52 LIR peptide (130–138), biotinylated]	binds	binds				
EDEWVPVQY (peptide, UniProt Q9Y4G2 632-640, looked up, also: biotinylated, PLEKHM1 LIR; source: bought: JPT (biotinylated peptide)) [PLEKHM1‐LIR N637P peptide (biotinylated 9-mer)]		binds	binds	binds		
NSDMLVVTT (also: biotinylated, Tax1BP1 LIR; source: bought: JPT (biotinylated peptide)) [Tax1BP1 LIR peptide (137–145), biotinylated]	binds	binds				

Binder	binding result [1]	binding result [2]	binding result [3]	binding result [4]	binding result [5]	binding result [6]
LEDWDIISP (also: biotinylated, TBC1D25 LIR; source: bought: JPT (biotinylated peptide)) [TBC1D25 LIR peptide (133–141), biotinylated]	binds	binds				
SEDYIIILP (also: biotinylated, NBR1 LIR; source: bought: JPT (biotinylated peptide)) [NBR1 LIR peptide (729–737), biotinylated]		binds				
TDDFVMVPA (also: biotinylated, ULK1 LIR; source: bought: JPT (biotinylated peptide)) [ULK1 LIR peptide (354–362), biotinylated]		binds				
EDEWVFVQY (peptide, UniProt Q9Y4G2 632-640, looked up, also: biotinylated, PLEKHM1 LIR; source: bought: JPT (biotinylated peptide)) [PLEKHM1‐LIR N637F peptide (biotinylated 9-mer)]	binds	binds	binds	binds	binds	binds
EDEWVAVQY (peptide, UniProt Q9Y4G2 632-640, looked up, also: biotinylated, PLEKHM1 LIR; source: bought: JPT (biotinylated peptide)) [PLEKHM1‐LIR N637A peptide (biotinylated 9-mer)]		binds	binds	binds		
EDEWVCVQY (peptide, UniProt Q9Y4G2 632-640, looked up, also: biotinylated, PLEKHM1 LIR; source: bought: JPT (biotinylated peptide)) [PLEKHM1‐LIR N637C peptide (biotinylated 9-mer)]	binds	binds	binds	binds	binds	binds
EDSFVEIRM (also: biotinylated, OPTN LIR; source: bought: JPT (biotinylated peptide)) [OPTN LIR peptide (175–183), biotinylated]		binds				
NSSWVELPM (also: biotinylated, NIX LIR; also called Nix/BNIP3L; source: bought: JPT (biotinylated peptide)) [NIX/BNIPL3 LIR peptide (33–41), biotinylated]	binds	binds				
EDEWVNVQY (also: biotinylated, PLEKHM1 LIR; also called PLEKHM1 LIR 632–640; source: bought: JPT (biotinylated peptide)) [PLEKHM1‐LIR WT peptide (EDEWVNVQY), biotinylated]	binds	binds	binds	binds	binds	binds
DLEDEWEVI (also: biotinylated, TECPR2 LIR; source: bought: JPT (biotinylated peptide)) [TECPR2 LIR peptide (1403–1411), biotinylated]	binds	binds				
HEEWEMVPR (also: biotinylated, STBD1 LIR; source: bought: JPT (biotinylated peptide)) [STBD1 LIR peptide (200–208), biotinylated]		binds				
DDSYEVLDL (also: biotinylated, FUNDC1 LIR; source: bought: JPT (biotinylated peptide)) [FUNDC1 LIR peptide (printed positions 152–160), biotinylated]	binds					
VDGWLIIDL (also: biotinylated, TP53INP2/DOR LIR; source: bought: JPT (biotinylated peptide)) [TP53INP2/DOR LIR peptide (32–40), biotinylated]	binds	binds				
EDEWCNVQY (peptide, UniProt Q9Y4G2 632-640, looked up, also: biotinylated, PLEKHM1 LIR; source: bought: JPT (biotinylated peptide)) [PLEKHM1‐LIR V636C peptide (biotinylated 9-mer)]	binds	binds	binds	binds	binds	binds
DAVFDIITD (also: biotinylated, FYCO1 LIR; source: bought: JPT (biotinylated peptide)) [FYCO1 LIR peptide (1277–1285), biotinylated]	binds	binds				
EDEWVIVQY (peptide, UniProt Q9Y4G2 632-640, looked up, also: biotinylated, PLEKHM1 LIR; source: bought: JPT (biotinylated peptide)) [PLEKHM1‐LIR N637I peptide (biotinylated 9-mer)]	binds	binds	binds	binds	binds	binds
GDDFELLDQ (also: biotinylated, FAM134B LIR; source: bought: JPT (biotinylated peptide)) [FAM134B LIR peptide (452–460), biotinylated]	binds	binds				
EDEWVGVQY (peptide, UniProt Q9Y4G2 632-640, looked up, also: biotinylated, PLEKHM1 LIR; source: bought: JPT (biotinylated peptide)) [PLEKHM1‐LIR N637G peptide (biotinylated 9-mer)]		binds	binds	binds		
SRVYQMILE (also: biotinylated, printed as MAP15K; source: bought: JPT (biotinylated peptide)) [MAP15K LIR peptide (337–345), biotinylated]	binds	binds				
EDDWDFLPP (also: biotinylated, Calreticulin LIR; source: bought: JPT (biotinylated peptide)) [Calreticulin LIR peptide (197–205), biotinylated]	binds	binds				
